The target of experiment [1] is T1, human-derived Smurf1 protein (Homo sapiens, UniProt Q9HCE7).
T1 construct: purchased Origene Technologies (Rockville, Md., USA)
Description: Affinity to Smurf1 by surface plasmon resonance (BIACORE T100). In kind it is binding. The following applies: 10 mM analyte over Smurf1 coupled to CM5 chip; FIG. 2A. As to the method: In order to confirm the affinity between cell permeable peptide-bone differentiation inducing sequence conjugate and Smurf1 by a chemical method, a human-derived Smurf1 protein acting as a ligand in the present experiment was purchased from Origene Technologies (Rockville, Md., USA). The protein ([…]) was coupled to a gold coated surface of a CM5 chip (BIACORE AB, Sweden) on which amino groups are bounded using an EDC/NHS kit (BIACORE AB, Sweden). (Instead of this experimental method, ‘Immobilization’ integrated into the BIACORE® T100 (BIACORE AB, Sweden) software used by the present inventors may be used). In this case, in order to find a suitable pH condition at which the protein may bind to the amino group in the CM5 chip, a method called ‘pH scouting’ was performed, thereby finding a pH condition. As a method of ‘pH scouting’, a method integrated in the BIACORE® T100 (BIACORE AB, Sweden) software used by the present inventors may be used. […]

Experiment [2] has as its target T1, human-derived Smurf1 protein. Kind of experiment: Slot-blot assay of binding to Smurf1. The text has this: In order to confirm presence or absence of the active site of the cell permeable peptide-bone differentiation inducing sequence conjugate synthesized by the method in Example 1 for binding to Smurf1 and binding degrees according to the concentration, a slot blot assay were used. This experimental method is a molecular biological method of positioning a protein on a membrane and sucking the protein in the other side to strongly attach the protein on a surface of the membrane, directly positioning a material to be confirm an interaction with the attached protein and culturing for a predetermine time to induce the binding, and blotting them using antibodies to confirm the interaction (affinity) between the protein and the material through a difference of each Dot.
1 μg of human-derived Smurf1 protein was input […] per well using a slot blot device (Hoefer, Pharmacia Biotech, USA) and blotted on a predetermined position on a nitrocellulose membrane (2 μm, Pall, USA) in a vacuum state. After blotting, the nitrocellulose membrane was blocked with phosphate buffer solution containing 0.5% Tween® 20 at room temperature for 30 minutes, and then completely dried. […]

Experiment [3] concerns human mesenchymal stem cells (hMSC). Kind of experiment: Cell permeability by fluorescence imaging (confocal scanning microscope). The following applies: FITC/fluorescence-labeled, FIG. 3A, FIG. 7. In kind it is cell-based. As to the method:
The domains synthesized in Example 1 and Comparative Examples 1 and 2 were labeled with a fluorescent material in order to measure cell permeability. 10 equivalents of fluorescein isothiocyanate (FITC) was bound to N-terminals of the synthesized domains by using triethylamine (1 ml per 1 g of resin). The synthesis of the peptide was confirmed by measuring the molecular weight thereof through MALDI-TOF.
In order to measure the cell permeability of the cell permeable peptide-bone differentiation inducing sequence conjugate, after sterile slide glass was input in a 6-well plate and 2×10^4 human mesenchymal stem cells (hMSC) were plated in each well, the cells were cultured in a general medium for 20 hours (overnight incubation). Then the cells was cultured in an hMSC basal medium (MSCBM, LONZA, USA) containing 0.5% fetal bovine serum (FBS, GIBCO, USA) for 20 hours (overnight starvation). […] fluorescence labeled cell permeable peptide-bone differentiation inducing sequence conjugate and […] fluorescence labeled bone differentiation inducing sequence that were obtained by binding FITC (SIGMA, USA) N-terminals of the cell permeable peptide-bone differentiation inducing sequence conjugate synthesized by the method in Example 1 and the domain in Comparative Example 2 to synthesize the fluorescence label conjugate and fluorescence label domain, followed by isolation and purification, were injected into each well and washed with phosphate buffer solution (PBS) two times after 20 minutes and 80 minutes of injection. The resultants was observed using a confocal scanning microscope (IX 70, Olympus Co., Tokyo, Japan).

T1 sequence (Q9HCE7 whole entry): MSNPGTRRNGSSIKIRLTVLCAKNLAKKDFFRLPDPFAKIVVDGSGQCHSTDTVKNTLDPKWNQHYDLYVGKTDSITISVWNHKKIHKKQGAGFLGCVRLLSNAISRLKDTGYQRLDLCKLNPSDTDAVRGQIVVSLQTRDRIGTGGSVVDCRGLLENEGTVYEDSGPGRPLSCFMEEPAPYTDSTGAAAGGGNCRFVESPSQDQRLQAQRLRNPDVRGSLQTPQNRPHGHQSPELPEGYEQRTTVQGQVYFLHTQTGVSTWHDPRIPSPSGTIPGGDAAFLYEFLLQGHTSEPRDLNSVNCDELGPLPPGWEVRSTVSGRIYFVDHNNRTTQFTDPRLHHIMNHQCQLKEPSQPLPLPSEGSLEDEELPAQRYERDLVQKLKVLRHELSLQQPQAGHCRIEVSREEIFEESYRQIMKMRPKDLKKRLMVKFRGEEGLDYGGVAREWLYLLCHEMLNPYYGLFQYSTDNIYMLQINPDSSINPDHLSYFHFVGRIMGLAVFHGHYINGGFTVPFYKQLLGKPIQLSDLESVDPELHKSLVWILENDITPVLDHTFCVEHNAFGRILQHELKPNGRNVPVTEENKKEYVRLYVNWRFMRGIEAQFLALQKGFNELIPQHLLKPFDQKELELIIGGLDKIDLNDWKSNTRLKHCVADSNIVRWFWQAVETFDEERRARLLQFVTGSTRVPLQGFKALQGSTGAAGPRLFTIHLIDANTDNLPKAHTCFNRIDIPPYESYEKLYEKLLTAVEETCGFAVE

As for “NH2-GAPPPADSAP-SSRKKNPNCRRH-C-COONH2 (H-GAPPPADSAPSSRKKNPNCRRHC-NH2; cysteine pairing not given here) [Example 1]”, the “affinity to Smurf1” value in experiment [1] was 600 RU. Besides, in experiment [2] (0.1, 1, 10, and 100 mM, 4° C., 20 hours, FIG. 2D), the “concentration at which an increase of dot size began” value is 10 mM. The “binding to Smurf1 protein detected as dot” value in experiment [2] (biotinylated domains, slot blot, FIG. 2C) was “a dot was confirmed”. Moreover, the “intracellular fluorescence after 20 minutes (confocal)” value in experiment [3] (20 minutes) is recorded as “fluorescent particles were observed in the cytoplasm”. In addition, the “intracellular fluorescence after 80 minutes (confocal)” value in experiment [3] (80 minutes) was “clearly observed in the cytoplasm and nucleus”.

(Values after patent US9023987B2, “Cell-permeable peptide” (Seoul National University R&DB Foundation, priority 2010, dated 2015).)
